Measured values reported in US20210355219A1 (HARPOON THERAPEUTICS, published 2021).

How the values were obtained:
C00703 huCD40::Fc [1] = biological target: T1, C00703 huCD40::Fc (human); assay: ELISA, immobilized huCD40; EC50 shift against unmasked anti-CD40
T1 construct: also called human CD40 protein; immobilized huCD40

[2] = biological target: CD40 on purified human B cells (human, UniProt P25942 21-277); assay: cell-based or functional assay
C00703 huCD40::Fc [3] = biological target: T1, C00703 huCD40::Fc; assay: ELISA, immobilized huCD40, purified protein
C00703 huCD40::Fc [4] = biological target: T1, C00703 huCD40::Fc; assay: ELISA, immobilized huCD40; the reference of the shift

CD40 on purified human B cells, sequence (P25942 21-277): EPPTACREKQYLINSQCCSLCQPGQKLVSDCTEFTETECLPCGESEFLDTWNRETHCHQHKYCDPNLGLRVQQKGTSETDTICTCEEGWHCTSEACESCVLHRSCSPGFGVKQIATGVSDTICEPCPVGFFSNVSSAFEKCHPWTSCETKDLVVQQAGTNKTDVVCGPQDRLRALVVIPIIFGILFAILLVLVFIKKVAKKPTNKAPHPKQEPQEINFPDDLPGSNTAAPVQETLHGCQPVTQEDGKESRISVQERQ
T1 sequence (chain, as listed by the source limits assumed): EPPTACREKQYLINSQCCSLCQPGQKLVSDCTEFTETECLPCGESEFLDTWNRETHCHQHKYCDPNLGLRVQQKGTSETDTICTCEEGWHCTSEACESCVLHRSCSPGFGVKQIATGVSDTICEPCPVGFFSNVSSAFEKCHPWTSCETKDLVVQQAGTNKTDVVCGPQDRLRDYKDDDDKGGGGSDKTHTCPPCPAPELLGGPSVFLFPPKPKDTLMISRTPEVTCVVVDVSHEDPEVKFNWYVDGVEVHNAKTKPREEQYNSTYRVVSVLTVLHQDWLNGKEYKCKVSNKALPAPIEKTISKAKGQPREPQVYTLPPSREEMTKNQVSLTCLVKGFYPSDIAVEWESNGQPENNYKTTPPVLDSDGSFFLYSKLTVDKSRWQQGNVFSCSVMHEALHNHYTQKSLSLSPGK

Binding shift (C00703 huCD40::Fc [1]) | Activity shift, B cell activation [2] | EC50 (C00703 huCD40::Fc [3]) | Binding shift (C00703 huCD40::Fc [4]) | EC50 (M), B cell activation (percentage of CD86 positive B cells, flow cytometry, 48 hours) [2] | Binder
52 fold | 2000 fold | 25 nM | – | – | anti-Alb mask070 anti-CD40 C2882, C2764 (aCD40 Heavy Chain GDSE) (bispecific antibody, human IgG1, kappa, Non-cleavable linker; Purified by Protein A. Same light chain as m2 but with the GDSE heavy chain C2764; also called C2882 aAlb-CD40-mask070) heavy: not shown light: EVQLVESGGGLVQPGNSLTLSCAASGFTFSKFGMSWVRQARAASAGQGLEWVSSISGSGRDTLYADSVKGRFTISRDNAKTTLYLQMNSLRPEDTAVYYCTIGGSLSVSSQGTLVTVSSGGGGSGGGSGGGGSGGGSDIQMTQSPSSVSASVGDRVTITCRASQGIYSWLAWYQQKPGKAPNLLIYTASTLQSGVPSRFSGSGSGTDFTLTISSLQPEDFATYYCQQANIFPLTFGGGTKVEIKRTVAAPSVFIFPPSDEQLKSGTASVVCLLNNFYPREAKVQWKVDNALQSGNSQESVTEQDSKDSTYSLSSTLTLSKADYEKHKVYACEVTHQGLSSPVTKSFNRGEC
– | 1 fold | 0.48 nM | 1 fold | 2.1e-11 M | Unmasked anti-CD40 C00697, C2764 (aCD40 Heavy Chain GDSE) (antibody, human IgG1, kappa, V domains shown, Anti-CD40 light chain without an anti-Alb domain; also called Active mimic C00697, C2764; control active mimic) VH: not shown VL: DIQMTQSPSSVSASVGDRVTITCRASQGIYSWLAWYQQKPGKAPNLLIYTASTLQSGVPSRFSGSGSGTDFTLTISSLQPEDFATYYCQQANIFPLTFGGGTKVEIKR
